# In the supplement of paper PMC9170038:
# Columns and labels:
# MS2 coat protein [1] = test: apparent KD of MS2 coat protein, switch ON state; designed switch direction (-1 OFF switch, 1 ON switch): -1; higher = weaker reporter binding; conditions: FMN input: 0 or 200 uM; Eterna round: R93 (includes R88 designs)
# How it was run: (§1)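 In 100 mM Tris-HCl pH 7.5 with 80 mM KCl and 4 mM MgCl2, and without or with constant ligand, SNAP-549-labelled MS2 coat protein was titrated in twofold steps from 0.7 or 1.5 nM to 3 µM. Per-step times went from 0.8–1.5 h down to 10–20 min. The RNA switches were transcribed on-chip from Illumina sequencing clusters, and apparent KD is the per-design median of normalised cluster binding-curve fits.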
# MS2 coat protein [2] = test: apparent KD of MS2 coat protein, switch OFF state (with FMN for OFF switches, without FMN for ON switches); designed switch direction (-1 OFF switch, 1 ON switch): -1; higher = weaker reporter binding; conditions: FMN input: 0 or 200 uM; Eterna round: R93 (includes R88 designs)
# How it was run: as §1
Sequence,apparent KD of MS2 coat protein (MS2 coat protein [1]) [nM],apparent KD of MS2 coat protein (MS2 coat protein [2]) [nM]
AAGCUGGUAGGAUAUACUAGGGCAACUAAUGCACCGAGAGGACAUGAGGAUCACCCAUGUAGAAGGGCCAGAAA [Mat - Exclusion 2 - JL mod - D63],114,82.3
CUCAAGUGAGGAUAUCAGUAGUAAAAAAAUAAAAUUACUACUGAGAAGGCACAUGAGGAUCACCCAUGUGUCUU [EX4 333: Super Stable 33],14.1,11.1
GCAUGCGAAGGAUAUACAUGAGGAUCACCCAUGUGAGAGAAAAAAGUGAGAAAGAAAAGUAGAAGGUCGUGUGG [salish99-ex3-94],40.7,70.9
AGCAAGUGAGGAUAUGCGAAGUCAGGACAAACACUGACGAAGCAGAAGGCACAUGAGGAUCACCCAUGUAAGCA [Mat - Exaclusion 4 - Eli mod - D60],28.8,29.8
UUUAAGUCAGGAUAUUCGGAUAGGAAAACGAAAACCUAUCCGAAGAAGGGACAUGAGGAUCACCCAUGUAAAAA [Starry Exclusion 4.3 (cataway round 1 mod)],52.1,56.3
AUAGGCCAAGGAUAUACAUGAGGAUCACCCAUGUAAAUAACUCGAUCAAAAUAAACAAGUAGAAGGUGGAAUAA [JR_Exc003_Sub204],25.1,29.4
CUCUUGUGAGGAUAUUGAAGAAAAGAAGAGAAAGAAAAGAACAAGAAGGCACAUGAGGAUCACCCAUGUAAGAA [EteRNA is fun!],37.9,44.2
AAACCACAUGAGGAUCACCCAUGUCAGGAUAUGAACGAAAUAAAAUAAAAAUAAAAGUUCAGAAGGGACGAAAA [Mat - Exclusion 1 - Eli mod - D17],27.3,33.8
AAUAAGUGAGGAUAUGGAAAUAAUAAAUAAAAUAAAAUAAACCAGAAGGCACAUGAGGAUCACCCAUGUAAAUA [JR_Exc004_Sub002],24.4,22
AGCUAGUCAGGAUAUACAAACAUGUCAAAAGACGUGAAGGGACAUGAGGAUCACCCAUGUAGAAGGGACUAGCA [Web Mod 74% 2],52.2,217
AAAAAGGAAGGAUAUACGAACAUGUCGAAAGACGUGAAGGGACAUGAGGAUCACCCAUGUAGAAGGUUCAAAAA [Mat - Exclusion 2 - JL mod - D80],33.6,19.3
AAACAACAUGAGGAUCACCCAUGUCAGGAUAUGAACGAAAUAAAAUAAAAAUAAAAGUUCAGAAGGGACGAAAA [Mat - Exclusion 1 - Eli mod - D18],36.7,50.1
AAGAAGCUAGGAUAUACAUGAGGAUCACCCAUGUAAAAGAAAGAGGGAAAAGAGAAAAGUAGAAGGAGCAAGAA [Cleopatra I],27.8,25.4
GAAAAGUCAGGAUAUGCAGAAAAAAAAACGAAAAAAAAACUGCAGAAGGGACAUGAGGAUCACCCAUGUUAAAA [Mat - Exclusion 4 - Mayanna - D127],41.5,31.2
AACAGUACAGGAUAUACAUGAGGAUCACCCAUGUCACAAUUAAGCAGCGUAACACAAAGUAGAAGGGUAAUGGA [Ruby 17],46.4,31.1
"AGCAAGUCAGGAUAUACGAACAAGACAAAAGACGAGAAGGGACAUGAGGAUCACCCAUGUAGAAGGGACAAGCA [74%, Web mod - With 5 less U's]",61.9,60.8
AGAAAACAUGAGGAUCACCCAUGUCAGGAUAUCCUGCGGUGAUACACACCGCGUUGUCGGAGAAGGGACAGGGA [Tiesesmari],65.6,81.9
AAACCACAUGAGGAUCACCCAUGUAAGGAUAUGAACGAAAUAAAAUAAAAAUAAAAGUUCAGAAGGUACAAAAA [Mat - Exclusion 1 - Eli mod - D22],22.6,22.1
AUAGGCCUAGGAUAUACAUGAGGAUCACCCAUGUAAAUAAAUCGAUCAAAAUAAACGUGUAGAAGGAGGAAUAA [JR_Exc003_Sub205],33.5,38.3
AGAAAACAUGAGGAUCACCCAUGUAAGGAUAUGCUGAAAAACACGGAAAAAACGUGCAGCAGAAGGUACAAAGA [Mat - Exclusion 1 - Eli mod - D95],22.4,40.8

Sequence,apparent KD of MS2 coat protein (MS2 coat protein [1]) [nM],apparent KD of MS2 coat protein (MS2 coat protein [2]) [nM]
AAAAAUCGAGGAUAUACAUGAGGAUCACCCAUGUAAAAAAAAAAAAAGGGAAAAAAAAGUAGAAGGCGAAAAAA [Sekhemre-Heruhirmaat Intef VII],58,30
ACAGUUACAGGAUAUACAAGGAAAAAUAAAAAUAAAAUUCAACAUGAGGAUCACCCAUGUAGAAGGGUAACUGA [Ex2 Design 200: Random 15],30,32.1
GGUGGCGUAGGAUAUACAUGAGGAUCACCCAUGUGAGAGAAAAAAGUGAGAAAGAAAAGUAGAAGGACGUUACG [salish99-ex3-126],40.3,147
AAAAGGAUAGGAUAUACAUGAGGAUCACCCAUGUUUAUAAAUAAAAGAAAUAAAGAAAGUAGAAGGGUCAAGAA [LROPPY Exclusion 3 - v07_deltaG=3.4],19.6,22.4
GAAGAACAUGAGGAUCACCCAUGUGAGGAUAUACAGAAUGGAAUAAAAUAACAAGAAAGUAGAAGGCACAAGAA [Ex 1 May 39],32.1,38.4
AAAAAACAUGAGGAUCACCCAUGUAAGGAUAUGCGAAAAUAAAAUAAAAUAAAAUAAAGCAGAAGGUACAAAAG [Mat - Exclusion 1 - Eli mod - D3],28.8,49.5
GAAGAACAUGAGGAUCACCCAUGUCAGGAUAUGCAGAAGGGAAUAAUAACCUCUGGAAGCAGAAGGGACAAGAA [Ex 1 May 48],33.5,59.4
UCCUCACAUGAGGAUCACCCAUGUGAGGAUAUGUACAUCAGGAAAAAAAAACUGAUGUACAGAAGGCACAUGGA [Design 9: Super Stable G-C 2],15.9,11.2
AUCUACCUAGGAUAUACAUGAGGAUCACCCAUGUACAGAUACAACUAGGGAAACACACGUAGAAGGAGGUAGAU [JR_Exc003_Sub1207],15.6,37.3
AAGAAUGAAGGAUAUACAAGGAAGAAAGAAAAGAAAAGAAAACAUGAGGAUCACCCAUGUAGAAGGUCAUAGAA [EteRNA is fun!],22,26.3
AACAUGUUAGGAUAUCAAAGAAAAGAAAAGAAAGAAAAGAAUGAGAAGGAACAUGAGGAUCACCCAUGUAAGAA [EteRNA is fun!],23,22.1
AUAAAUCGAGGAUAUACAUGAGGAUCACCCAUGUAAAUAAAUAAAUAAUCCUCAGGAAGUAGAAGGCGAAAUAA [JR_Exc003_Sub019],15.1,27.2
AACAGGACAGGAUAUACAUGAGGAUCACCCAUGUAGGAAACAAGCAGAGUACCAAACAGUAGAAGGGUCAUGGA [Ruby 29],31.3,50.3
AAAAAGGCAGGAUAUGCAUACACACGAAAAAAAAAACUGGGACAUGAGGAUCACCCAUGUAGAAGGGCCAAAAA [Dora Explored 9 - Jieux - Exclusion 2],67.5,41.9
AGUUGGCGAGGAUAUACAUGAGGAUCACCCAUGUGAAAGAAAAACUCGAAAGAGAAAAGUAGAAGGCGCUGACA [Mat - Exclusion 3 - Eli mod - D93],16.8,37.6
AUCGAUCGAGGAUAUACAUGAGGAUCACCCAUGUAAAAAAAAAAAAAGGCCUCAGGACGUAGAAGGCGACGCAA [JR_Exc003_Sub402],16.3,22.6
AACUGACAUGAGGAUCACCCAUGUCAGGAUAUGACUUGAUAGAAAAAAAAAUAUCAUGUCAGAAGGGACAUGGG [Design 56 :P Sub-opt I],21.4,12.8
AAAAAGUCAGGAUAUCUGGAUAGGAAAAAGAAAACCUAUCCAGAGAAGGGACAUGAGGAUCACCCAUGUAAAAA [JL cataway mod 1],49.2,42.4
ACUAACAGAGGAUAUACUAACAAACCUCAAACAUACAUCAAACAUGAGGAUCACCCAUGUAGAAGGCUGAAACU [JR_Exc002_Sub005],26.7,27
